This is an account of results in patent US6156551.

Where no end group is shown, it is not given here. [ ]: non-standard residue; d: D form. pY = N[C@@H](Cc1ccc(OP(=O)(O)O)cc1)C(=O)O

The target in assay [1] is [^32 P]reduced carboxyamidomethylated and maleylated-lysozyme (Gallus gallus (Chicken)) (UniProt P00698).
The target of assay [2] is reduced carboxyamidomethylated and maleylated-lysozyme (not phosphorylated) (Gallus gallus (Chicken)) (UniProt P00698).
The target of assay [3] is T1, D61A activated mutant of SHP-2 (human).
T1 sequence: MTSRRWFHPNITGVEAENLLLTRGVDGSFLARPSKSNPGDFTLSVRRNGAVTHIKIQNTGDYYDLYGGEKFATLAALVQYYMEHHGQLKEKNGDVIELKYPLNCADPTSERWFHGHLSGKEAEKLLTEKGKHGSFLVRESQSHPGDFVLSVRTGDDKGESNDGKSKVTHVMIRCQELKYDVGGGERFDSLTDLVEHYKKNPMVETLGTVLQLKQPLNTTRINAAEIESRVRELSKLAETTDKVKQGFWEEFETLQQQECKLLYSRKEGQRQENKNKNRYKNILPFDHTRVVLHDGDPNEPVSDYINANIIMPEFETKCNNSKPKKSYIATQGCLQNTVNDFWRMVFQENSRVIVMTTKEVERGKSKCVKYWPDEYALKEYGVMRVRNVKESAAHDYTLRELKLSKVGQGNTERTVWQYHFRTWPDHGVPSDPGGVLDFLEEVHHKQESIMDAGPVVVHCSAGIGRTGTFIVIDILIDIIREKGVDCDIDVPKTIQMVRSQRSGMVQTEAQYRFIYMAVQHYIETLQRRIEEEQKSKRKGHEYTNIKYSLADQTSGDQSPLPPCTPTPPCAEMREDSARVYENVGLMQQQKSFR

For E76A activated mutant of SHP-2 (enzyme), the phosphatase activity ([32P] phosphate released from [^32 P]RCM-lysozyme) (pmol/min-pmol) in assay [1] was 100.

“recombinant full length Src kinase (enzyme)” came in with a phosphorylation of RCM-lysozyme with [γ-^32 P] ATP in assay [2] of 2000 cpm/pmol.

B1: SHPS-1 phosphotyrosine peptide DIT[pY]…[pY]ASIQTS-NH2 (peptide)
peptide: DIT[pY]ADLNLPKGKKPAPQAAEPNNHTE[pY]ASIQTS-NH2
modifications: N-terminus assumed
SMILES: CC[C@H](C)[C@H](NC(=O)[C@H](CO)NC(=O)[C@H](C)NC(=O)[C@H](Cc1ccc(OP(=O)(O)O)cc1)NC(=O)[C@H](CCC(=O)O)NC(=O)[C@@H](NC(=O)[C@H](Cc1c[nH]cn1)NC(=O)[C@H](CC(N)=O)NC(=O)[C@H](CC(N)=O)NC(=O)[C@@H]1CCCN1C(=O)[C@H](CCC(=O)O)NC(=O)[C@H](C)NC(=O)[C@H](C)NC(=O)[C@H](CCC(N)=O)NC(=O)[C@@H]1CCCN1C(=O)[C@H](C)NC(=O)[C@@H]1CCCN1C(=O)[C@H](CCCCN)NC(=O)[C@H](CCCCN)NC(=O)CNC(=O)[C@H](CCCCN)NC(=O)[C@@H]1CCCN1C(=O)[C@H](CC(C)C)NC(=O)[C@H](CC(N)=O)NC(=O)[C@H](CC(C)C)NC(=O)[C@H](CC(=O)O)NC(=O)[C@H](C)NC(=O)[C@H](Cc1ccc(OP(=O)(O)O)cc1)NC(=O)[C@@H](NC(=O)[C@@H](NC(=O)[C@@H](N)CC(=O)O)[C@@H](C)CC)[C@@H](C)O)[C@@H](C)O)C(=O)N[C@@H](CCC(N)=O)C(=O)N[C@H](C(=O)N[C@@H](CO)C(N)=O)[C@@H](C)O
For the molecule B1, in assay [3], the activation of phosphatase activity on [^32 P]RCM-lysozyme by the phosphotyrosine peptide (fold higher than wildtype SHP-2) worked out at 5.
